These results are taken from paper PMC4537050 (2015).

The experiment concerns the target T1, Human recombinant FGF8b (fibroblast growth factor-8b) (human).
T1 chain: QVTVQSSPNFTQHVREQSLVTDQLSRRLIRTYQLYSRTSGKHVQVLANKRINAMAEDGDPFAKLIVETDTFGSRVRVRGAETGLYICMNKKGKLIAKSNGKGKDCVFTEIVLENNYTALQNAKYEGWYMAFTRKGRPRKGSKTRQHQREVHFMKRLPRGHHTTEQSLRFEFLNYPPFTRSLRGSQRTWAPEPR
Put plainly: SPR. For orientation: SPR reads the build-up and loss of mass on a sensor chip optically.

Some results are limits rather than exact numbers.

B1: Ac-ARPMA-NH2 (peptide)
peptide: Ac-ARPMA-NH2
In general, Kd refers to the constant that tells how readily two partners part at equilibrium. In the case of B1, the Kd is greater than 3 mM.

B2: Ac-ARGCA-NH2 (peptide)
peptide: Ac-ARGCA-NH2
B2: the Kd is greater than 3 mM.

B3: Ac-ARPCG-NH2 (peptide)
peptide: Ac-ARPCG-NH2
As for B3, the Kd is 1.9 mM.

B4: Ac-ARACA-NH2 (peptide)
peptide: Ac-ARACA-NH2
Take B4: the Kd was greater than 3 mM.

B5: Ac-GRPCG-NH2 (peptide)
peptide: Ac-GRPCG-NH2
As for B5, the Kd was greater than 3 mM.

B6: H-ARPCA-NH2, non-acetylated peptide (peptide)
peptide: H-ARPCA-NH2
In the case of B6, the Kd stood at 2.9 mM.

B7: Ac-APCRA-NH2, partially scrambled peptide (peptide)
peptide: Ac-APCRA-NH2
As to B7, the Kd was greater than 3 mM.
